{"source": "patent US20260184791A1", "about": "(KYMAB, published 2026)", "binders": {"B1": {"name": "CL-74570 (antibody, human IgG1, V domains shown)", "VH": "EVQLVESGGGVIRPGGSLRLSCAASGFTFDDYGMSWVRQAPGKGLEWVSGINWIGDNTDYADSVKGRFTISRDNAKNSLYLQMNSLRAEDTALYYCARDYFGSGSYYNVPF", "VL": "not shown"}, "B2": {"name": "CL-61091 (antibody, human IgG1, V domains shown)", "VH": "QVQLMQSGTEVKKPGASVKVSCKTSGYTFTTYGITWVRQAPGQGLEWMGWISAYSGDTDYAQKFQGRVTVTTDTSTNTAYMELRSLKSDDTAVYYCARSSGWPHHYGMDVWGQGTTVTVSS", "VL": "DIVMTQSPLSLPVTPGEPASISCRSSQSLLHSNGFNYFDWYLQKPGQSPQLLIFLVSNRASGVPDRFSGSGSGTDFTLKISRVEAEDVGIYYCMQALQTPLTFGGGTKVEIK"}, "B3": {"name": "KY1044 (antibody, human IgG1, kappa, V domains shown)", "VH": "EVQLVESGGGVVRPGGSLRLSCVASGVTFDDYGMSWVRQAPGKGLEWVSGINWNGGDTDYSDSVKGRFTISRDNAKNSLYLQMNSLRAEDTALYYCARDFYGSGSYYHVPFDYWGQGILVTVSS", "VL": "EIVLTQSPGTLSLSPGERATLSCRASQSVSRSYLAWYQQKRGQAPRLLIYGASSRATGIPDRFSGDGSGTDFTLSISRLEPEDFAVYYCHQYDMSPFTFGPGTKVDIKR", "notes": "also called STIM003; SAR445256"}}, "key": {"[1]": {"target": "T1, human ICOS expressed on the surface of cells (human, UniProt Q9Y6W8 21-199)", "T1 construct": "also called hICOS; Human ICOS CHO", "T1 sequence": "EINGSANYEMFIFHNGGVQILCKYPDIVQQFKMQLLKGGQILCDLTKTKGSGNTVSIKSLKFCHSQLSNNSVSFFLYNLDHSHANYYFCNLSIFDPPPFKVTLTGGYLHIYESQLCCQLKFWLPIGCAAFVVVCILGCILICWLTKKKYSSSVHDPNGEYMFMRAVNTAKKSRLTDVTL", "assay": "flow cytometry, CHO-S cells expressing ICOS, purified IgG1"}, "[2]": {"target": "T2, mouse ICOS expressed on the surface of CHO-S cells (mouse, UniProt Q9WVS0 21-141)", "T2 construct": "The construct expressed in CHO-S cells is not specified; also called mICOS; Mouse ICOS CHO", "T2 sequence": "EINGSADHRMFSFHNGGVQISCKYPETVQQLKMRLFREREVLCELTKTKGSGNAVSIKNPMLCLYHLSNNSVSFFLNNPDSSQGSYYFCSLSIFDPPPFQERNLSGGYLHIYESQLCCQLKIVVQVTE", "assay": "flow cytometry, CHO-S cells expressing ICOS, purified IgG1"}, "[3]": {"target": "T1, human ICOS expressed on the surface of …", "assay": "Receptor occupancy by chip cytometry on ICOS+ CD4 memory cells (ICOS+CD3+CD4+FoxP3-CD45RA-) from blood of patients dosed with KY1044 every 3 weeks; samples at C1D1, C1D8, C2D1 and C2D8"}}}
{"binder": "B1", "values": [{"measurement": "fold above the average of geomean of the negative control", "setting": "[1]", "result": "> 10", "unit": "fold"}, {"measurement": "fold above the average of geomean of the negative control", "setting": "[2]", "result": "> 10", "unit": "fold"}]}
{"binder": "B2", "values": [{"measurement": "fold above the average of geomean of the negative control", "setting": "[1]", "result": "> 10", "unit": "fold"}, {"measurement": "fold above the average of geomean of the negative control", "setting": "[2]", "result": "> 10", "unit": "fold"}]}
{"binder": "B3", "values": [{"measurement": "binding result", "setting": "[3]", "result": "binds"}]}
